From patent US11230581B2, “Peptides and combination of peptides for use in immunotherapy against ovarian cancer and other cancers” (Immatics Biotechnologies GmbH, priority 2015, dated 2022)

What follows are substances tested against HLA-A*02:01 (Homo sapiens, UniProt P04439, D140Y/D185E/D98H/E176V/E277Q/G131W/G231S/I119V/I121R/I166T/I218V/L300P/L318F/N151K/N90K/P208A/P217A/Q86G/Q94H/R138H/R169H/T345S) (assay: MHC binding assay (UV-ligand exchange, β2m ELISA, peptide exchange yield)). Conditions: binding of HLA-class I restricted peptides to HLA-A*02:01, UV-ligand exchange.
Procedure, shortened: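 Peptide-MHC complexes formed by UV-ligand exchange, cleaving a UV-sensitive placeholder peptide in favour of the test peptide. Exchange yield measured by ELISA: monomers diluted 100-fold onto streptavidin-coated plates, 1 h 37 °C, detected with 2 ug/ml HRP anti-β2m and TMB, absorbance at 450 nm.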
In the case of “578 (FLDPGGPMMKL; listed as Homo sapiens) [compound 578]”, the “Peptide exchange (MHC class I binding score, peptide exchange yield)” value (“Peptide exchange” below) is reported as ““+++” (≥50 = +++)”.
For “579 (NLMEMVAQL; listed as Homo sapiens) [compound 579]”, the “Peptide exchange” value was ““++” (≥20% = ++)”.
With “580 (LLMENAERV; listed as Homo sapiens) [compound 580]” the “Peptide exchange” value was ““++” (≥20% = ++)”.
With “582 (TLCDVILMV; listed as Homo sapiens) [compound 582]” the “Peptide exchange” value was ““+++” (≥50 = +++)”.
With “583 (ILANDGVLLAA; listed as Homo sapiens) [compound 583]” the “Peptide exchange” value was ““+++” (≥50 = +++)”.
In the case of “584 (ALAEVAAMENV; listed as Homo sapiens) [compound 584]”, the “Peptide exchange” value is reported as ““+++” (≥50 = +++)”.
With “585 (ALWDLAADKQTL; listed as Homo sapiens) [compound 585]” the “Peptide exchange” value was ““++++” (≥75% = ++++)”.
In the case of “586 (KLKPGDLVGV; listed as Homo sapiens) [compound 586]”, the “Peptide exchange” value is reported as ““+++” (≥50 = +++)”.
In the case of “587 (VMNDRLYAI; listed as Homo sapiens) [compound 587]”, the “Peptide exchange” value is reported as ““+++” (≥50 = +++)”.
With “588 (SLLPLSHLV; listed as Homo sapiens) [compound 588]” the “Peptide exchange” value was ““+++” (≥50 = +++)”.
In the case of “589 (KLYPQLPAEI; listed as Homo sapiens) [compound 589]”, the “Peptide exchange” value is reported as ““+++” (≥50 = +++)”.
For “590 (SLIEKLWQT; listed as Homo sapiens) [compound 590]”, the “Peptide exchange” value was ““++” (≥20% = ++)”.
With “591 (SMAELDIKL; listed as Homo sapiens) [compound 591]” the “Peptide exchange” value was ““+++” (≥50 = +++)”.
With “592 (RLLSAAENFL; listed as Homo sapiens) [compound 592]” the “Peptide exchange” value was ““+++” (≥50 = +++)”.
In the case of “593 (GLPRFGIEMV; listed as Homo sapiens) [compound 593]”, the “Peptide exchange” value is reported as ““+++” (≥50 = +++)”.
With “594 (IMLKGDNITL; listed as Homo sapiens) [compound 594]” the “Peptide exchange” value was ““+++” (≥50 = +++)”.
With “595 (VLLSIYPRV; listed as Homo sapiens) [compound 595]” the “Peptide exchange” value was ““+++” (≥50 = +++)”.
For “596 (ALLDQTKTLAESAL; listed as Homo sapiens) [compound 596]”, the “Peptide exchange” value was ““+++” (≥50 = +++)”.
In the case of “597 (KLLEGQVIQL; listed as Homo sapiens) [compound 597]”, the “Peptide exchange” value is reported as ““+++” (≥50 = +++)”.
In the case of “598 (FLFPHSVLV; listed as Homo sapiens) [compound 598]”, the “Peptide exchange” value is reported as ““+++” (≥50 = +++)”.
“599 (YLLNDASLISV; listed as Homo sapiens) [compound 599]” was tested, and the “Peptide exchange” value was ““+++” (≥50 = +++)”.
In the case of “600 (ALAAPDIVPAL; listed as Homo sapiens) [compound 600]”, the “Peptide exchange” value is reported as ““+++” (≥50 = +++)”.
With “601 (SAFPFPVTV; listed as Homo sapiens) [compound 601]” the “Peptide exchange” value was ““+++” (≥50 = +++)”.
For “602 (YLLEQIKLIEV; listed as Homo sapiens) [compound 602]”, the “Peptide exchange” value was ““++++” (≥75% = ++++)”.
With “603 (FLIEPEHVNTV; listed as Homo sapiens) [compound 603]” the “Peptide exchange” value was ““++” (≥20% = ++)”.
With “604 (SILDRDDIFV; listed as Homo sapiens) [compound 604]” the “Peptide exchange” value was ““+++” (≥50 = +++)”.
For “605 (KLYEAVPQL; listed as Homo sapiens) [compound 605]”, the “Peptide exchange” value was ““+++” (≥50 = +++)”.
In the case of “606 (ALWETEVYI; listed as Homo sapiens) [compound 606]”, the “Peptide exchange” value is reported as ““+++” (≥50 = +++)”.
With “607 (RLYSGISGLEL; listed as Homo sapiens) [compound 607]” the “Peptide exchange” value was ““+++” (≥50 = +++)”.
“608 (SLLSVSHAL; listed as Homo sapiens) [compound 608]” was tested, and the “Peptide exchange” value was ““+++” (≥50 = +++)”.
For “609 (ALWKQLLEL; listed as Homo sapiens) [compound 609]”, the “Peptide exchange” value was ““+++” (≥50 = +++)”.
“610 (LLAPTPYIIGV; listed as Homo sapiens) [compound 610]” was tested, and the “Peptide exchange” value was ““+++” (≥50 = +++)”.
For “611 (YLLDDGTLVV; listed as Homo sapiens) [compound 611]”, the “Peptide exchange” value was ““++++” (≥75% = ++++)”.
“612 (YLYNEGLSV; listed as Homo sapiens) [compound 612]” was tested, and the “Peptide exchange” value was ““+++” (≥50 = +++)”.
In the case of “613 (RLLPPGAVVAV; listed as Homo sapiens) [compound 613]”, the “Peptide exchange” value is reported as ““+++” (≥50 = +++)”.
For “614 (LLLPDQPPYHL; listed as Homo sapiens) [compound 614]”, the “Peptide exchange” value was ““+++” (≥50 = +++)”.
“615 (VLPPDTDPA; listed as Homo sapiens) [compound 615]” was tested, and the “Peptide exchange” value was ““++” (≥20% = ++)”.
For “616 (VLIDEVESL; listed as Homo sapiens) [compound 616]”, the “Peptide exchange” value was ““+++” (≥50 = +++)”.
“617 (ALMYESEKVGV; listed as Homo sapiens) [compound 617]” was tested, and the “Peptide exchange” value was ““+++” (≥50 = +++)”.
For “618 (VLFDSESIGIYV; listed as Homo sapiens) [compound 618]”, the “Peptide exchange” value was ““+++” (≥50 = +++)”.
In the case of “619 (ALQDRVPLA; listed as Homo sapiens) [compound 619]”, the “Peptide exchange” value is reported as ““+++” (≥50 = +++)”.
With “620 (KLLNKIYEA; listed as Homo sapiens) [compound 620]” the “Peptide exchange” value was ““++++” (≥75% = ++++)”.
“621 (VLMDRLPSLL; listed as Homo sapiens) [compound 621]” was tested, and the “Peptide exchange” value was ““++++” (≥75% = ++++)”.
In the case of “622 (RLLGEEVVRVLQA; listed as Homo sapiens) [compound 622]”, the “Peptide exchange” value is reported as ““+++” (≥50 = +++)”.
In the case of “623 (YLVEDIQHI; listed as Homo sapiens) [compound 623]”, the “Peptide exchange” value is reported as ““+++” (≥50 = +++)”.
For “635 (SLDSTLHAV; listed as Homo sapiens) [compound 635]”, the “Peptide exchange” value was ““+++” (≥50 = +++)”.
